B1: FLAG-tagged full-length ORF57 [Kaposi's sarcoma-associated herpesvirus (KSHV, HHV8)] / itself (parent complex)
chain: MVQAMIDMDIMKGILEDSVSSSEFDESRDDETDAPTLEDEQLSEPAEPPADERIRGTQSAQGIPPPLGRIPKKSQGRSQLRSEIQFCSPLSRPRSPSPVNRYGKKIKFGTAGQNTRPPPEKRPRRRPRDRLQYGRTTRGGQCRAAPKRATRRPQVNCQRQDDDVRQGVSDAVKKLRLPASMIIDGESPRFDDSIIPRHHGACFNVFIPAPPSHVPEVFTDRDITALIRAGGKDDELINKKISAKKIDHLHRQMLSFVTSRHNQAYWVSCRRETAAAGGLQTLGAFVEEQMTWAQTVVRHGGWFDEKDIDIILDTAIFVCNAFVTRFRLLHLSCVFDKQSELALIKQVAYLVAMGNRLVEACNLLGEVKLNFRGGLLLAFVLTIPGMQSRRSISARGQELFRTLLEYYRPGDVMGLLNVIVMEHHSLCRNSECAAATRAAMGSAKFNKGLFFYPLS

Variants of: B1
Experiment: in vitro crosslinking assay (DSS) with anti-FLAG Western blot; HEK293 cells, 0.5 μg plasmid for WT and 2 μg for mutant, DSS 50 μM for 30 min; lanes 14 (WT) and 16 (mutant); parent: 0.15

Variant | screen value
MVQAMIDMDIMKGILEDSVSSSEFDESRDDETDAPTLEDEQLSEPAEPPADERIRGTQSAQGIPPPLGRIPKKSQGRSQLRSEIQFCSPLSRPRSPSPVNRYGKKIKFGTAGQNTRPPPEKRPRRRPRDRLQYGRTTRGGQCRAAPKRATRRPQVNCQRQDDDVRQGVSDAVKKLRLPASMIIDGESPRFDDSIIPRHHGACFNVFIPAPPSHVPEVFTDRDITALIRAGGKDDELINKKISAKKIDHLHRQMLSFVTSRHNQAYWVSCAAETAAAGGLQTLGAFVEEQMTWAQTVVRHGGWFDEKDIDIILDTAIFVCNAFVTRFRLLHLSCVFDKQSELALIKQVAYLVAMGNRLVEACNLLGEVKLNFRGGLLLAFVLTIPGMQSRRSISARGQELFRTLLEYYRPGDVMGLLNVIVMEHHSLCRNSECAAATRAAMGSAKFNKGLFFYPLS [chain 1 R270A, chain 1 R271A] | 0.07

From article PMC6105031, “The crystal structure of KSHV ORF57 reveals dimeric active sites important for protein stability and function” (PLoS Pathogens, 2018)
